Our source for the Normalized affinity, kD (%), Bmax and Kd values is patent publication US20110008376A1.

Assay [1] concerns the target nOVA (untreated ovalbumin, 1 mg/ml in PBS) (chicken) (UniProt P01012). The assay is described as follows: ELISA, immobilized OVA form, normalized to nOVA. Background: In an ELISA, binding on a coated surface is turned into a signal by an enzyme label.
For assay [2], the target named is cdH5-0 (dH5-0 supernatant after 10 min at 16,000-18,000*g) (influenza A virus H5N1 strain A/Vietnam/1203/04). As to the kind of experiment: ELISA, immobilized H5 form, normalized to cdH5-0.
Assay [3] addresses dH5-I (misfolded H5, heat cycling at pH 7) (influenza A virus H5N1 strain A/Vietnam/1203/04). As to the kind of experiment: ELISA, immobilized H5 form, normalized to cdH5-0.
For assay [4], the target named is dH5-II (misfolded H5, heat cycling at pH 2) (influenza A virus H5N1 strain A/Vietnam/1203/04). The assay is described as follows: ELISA, immobilized H5 form, normalized to cdH5-0.
Assay [5] concerns the target dH5-III (misfolded H5, about 16 h at 47.5 C) (influenza A virus H5N1 strain A/Vietnam/1203/04). The assay is described as follows: ELISA, immobilized H5 form, normalized to cdH5-0.
In assay [6] the target is fdH5-0 (ultrafiltrated dH5-0, flow-through of a 1,000 kDa cut-off filter) (influenza A virus H5N1 strain A/Vietnam/1203/04). As to the kind of experiment: ELISA, immobilized H5 form, normalized to cdH5-0.
In assay [7] the target is dH5-0 (hemagglutinin 5 of H5N1 strain A/Vietnam/1203/04 as supplied by Protein Sciences) (influenza A virus H5N1 strain A/Vietnam/1203/04). The assay is described as follows: ELISA, immobilized H5 form, normalized to cdH5-0; average of two measurements.
For assay [8], the target named is cdH5-0 (dH5-0 supernatant after 10 min at 16,000-18,000*g) (influenza A virus H5N1 strain A/Vietnam/1203/04). As to the kind of experiment: ELISA, immobilized H5 form, excess epsilon-amino caproic acid.
Assay [9] deals with dH5-0 (hemagglutinin 5 of H5N1 strain A/Vietnam/1203/04 as supplied by Protein Sciences) (influenza A virus H5N1 strain A/Vietnam/1203/04). The assay is described as above.
The target in assay [10] is dH5-II (misfolded H5, heat cycling at pH 2) (influenza A virus H5N1 strain A/Vietnam/1203/04). The description is as above.
In assay [11] the target is fdH5-0 (ultrafiltrated dH5-0, flow-through of a 1,000 kDa cut-off filter) (influenza A virus H5N1 strain A/Vietnam/1203/04). Described as above.

Chain of UniProt P01012 (P01012 2-386 limits assumed): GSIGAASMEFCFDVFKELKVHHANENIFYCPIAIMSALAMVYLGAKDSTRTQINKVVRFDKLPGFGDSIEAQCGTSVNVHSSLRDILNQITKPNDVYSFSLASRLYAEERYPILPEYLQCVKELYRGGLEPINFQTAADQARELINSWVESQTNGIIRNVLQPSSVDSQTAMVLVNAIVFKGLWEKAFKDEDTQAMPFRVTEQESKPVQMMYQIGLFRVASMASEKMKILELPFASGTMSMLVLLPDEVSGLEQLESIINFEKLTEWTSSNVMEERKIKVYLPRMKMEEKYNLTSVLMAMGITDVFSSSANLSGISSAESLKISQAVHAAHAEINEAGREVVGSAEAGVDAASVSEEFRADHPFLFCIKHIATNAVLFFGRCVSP

On to “fourth and fifth finger domain of fibronectin (Fn F4-5) (from UniProt P02751 183-274)”, for which the Normalized affinity, kD (%) in assay [1] is 100%; in [2], 100%; in [3] it was 0%; in assay [4], 88%; in assay [5] it was 6%; in [6], 69%. For the same substance, in assay [7], the Normalized affinity, kD (%) turned out to be 103%.
Usually Kd stands for the constant that tells how readily two partners part at equilibrium. High values mean lower affinity, low ones higher affinity. Take “tissue type plasminogen activator (tPA) (from UniProt P00750 36-562) (enzyme)”: the Bmax in [8] turned out to be 0.36; in assay [9] it was 0.32; in assay [10], 0.07; in assay [11] it was 0.37. The Kd was 0.102 µM in assay [8], 0.096 µM in assay [9], 0.019 µM in assay [10] and 0.342 µM in [11].
